Here are results for 30 sequences from the nanobody polyreactivity screen of Harvey et al. (2022).

The data set can be described thus: yeast display, Sf9 membrane polyspecificity reagent, FACS + sequencing; frameworks hold sequencing errors. In short, it runs like this:
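Using colony PCR, genes from sorted yeast display clones were amplified, then sequenced on MiSeq at 2 × 250 and filtered by CDR length. The clones had been stained with 10% biotinylated, detergent-solubilized Sf9 membrane reagent for 1 hour at 4 °C and sorted by FACS into low and high (top ~1%) gates on anti-HA and streptavidin fluorescence. Polyreactivity labels come from the gate of origin.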
Regarding “QVQLVESGGGLVQAGGSLRLSCAASGSTFQYNAMGWYRQAPGKERELVAAISLSGGSTYYADSVKGRFTISRDNAKNTVYLQMNSLKPEDTAVYYCATEYYVYDYYYWAWYGYEYWGQGTQVTVSS”, the “polyreactivity (PSR sort gate)” value is listed as “high polyreactivity”.

For the sequence “QVQLVESGRGLVQAGGSLRLSCAASGSIFKNYAMGWYRQAPGKERELVAAITRGTYYADSVKGRFTISRDNAKNTVYLQMNSLKPEDTAVYDCYREYWGRGYYRVRGEYDYWGQGTQVTVSS”, the “polyreactivity (PSR sort gate)” value was “low polyreactivity”.

Consider “QVQLVESGGGLVQAGGSLRLSCAASGRIFPAYAMGWYRQAPWKERELVASIRRGGITYADSVKGRFTISRDNAKNTVYLQMNSLKPEDSAVYYCNADYRGWGYHMYYWGQGTQVTVSS”, for which the “polyreactivity (PSR sort gate)” value is “low polyreactivity”.

For “QVQLVESGGGLVQAGGSLRLSCAASGRTFRYNAMGWYRQAPGKERELVAAISRSGGRTYYADSVKGRFTISRDNAKNTVYLQMNSLKPEDTAVYYCNAAPSWSTSFDSWGQGTQVTVSS”, the “polyreactivity (PSR sort gate)” value is “high polyreactivity”.

As for “QVQLVESGGGLVQAGGSLRLSCAASGLTFVSYAMGWYRQAPGKERELVAAISYGGGSTNYADSVKGRFTISRDNAKNTVDLQMNSLKPEDTAVYYCAAEPGYYDEYGYWGQGTQVTVSS”, the “polyreactivity (PSR sort gate)” value is listed as “low polyreactivity”.

As to “QVQLVESGGGLVQAGGSLRLSCAASGSIFDTYAMGWYRQATGKERELVSTISWSGDSKYYADSVKGRFTISRDNAKNTVYLQINSLKPEDTAVYYCAADVGQVWDHEDYDYWGQGTQVTVSS”, the “polyreactivity (PSR sort gate)” value was “low polyreactivity”.

With “KVQLVESGGGLVQAGGSLRLSCAASGFTLGYYAMGWYRQEPGKEREMVAAITSGGGTNYADSVKGRFTISRDNAKNTVYLQMNSLKPEDSAVYYCAARARWIYGMYSWGQGTQVTLSS”, the “polyreactivity (PSR sort gate)” value is listed as “low polyreactivity”.

For “QVQLVESGGGLVQAGGSLRLSCAASGFTFRDYVMGWYRQAPGKERELVAAISRSGASTYYADSVKGRFTISRDNAKNTVYLQMNSLKPEDTAVYYCAKTQAGYSPGTYYYWGQGTQVTVSS”, the “polyreactivity (PSR sort gate)” value is recorded as “high polyreactivity”.

Consider “QVQLVQSGGGLVQAGGSLRLSSAASRSPLGYYALGWYRQAPGKERELVAAISGRGTSPYYADSVKGRFTISRDNAKNTVYVQMNSLKPEDTAVSYCAAQLFRELYWGQGTQVTVSS”, for which the “polyreactivity (PSR sort gate)” value is “high polyreactivity”.

As to “QVQLVESGGGLVQAGGSLRLSCAASGITFYGYVMGWYRQAPGKERELVAAISTSGGSTYYADSVKGRFTISRDNAKNTVYLQMNSLKPEDTAVYYCAKYLYPFYPDYDYWGQGTQVTVSS”, the “polyreactivity (PSR sort gate)” value is recorded as “high polyreactivity”.

For the sequence “QVQLVESGGGLVQAGGSLRLSCAASGRTSFYNAMGWYRQAPGKERELVAAISYRGTRTYYADSVKGRFTISRDNAKNTVYLQMNSLKPEDTAVYYCAKDSGYYTADDYDYWGQGTQVTVSS”, the “polyreactivity (PSR sort gate)” value was “low polyreactivity”.

“QVQLVESGGGLVQAGGSLRLSCAASGRTFWWYAMGWYRQAPGKERALVAGISSGGSTYYADSVKGRCTISRDNAKKTVYLLMNSRKPEETAVYYCAKTYWYPWRASLWHEYDYWGQGTQVTVSS”: the “polyreactivity (PSR sort gate)” value is recorded as “low polyreactivity”.

Consider “QVQLVESGGGLVQAGGSLRLSCAASGFTFRDYAMGWYRQAPGQERELVATITWRVGSTFYADSVKGRFTISRDNAKNTVYLQMNTLKPEDTADDYCAARWSTSYGPFDYWGQGTQVTVSS”, for which the “polyreactivity (PSR sort gate)” value is “low polyreactivity”.

Consider “QVQLQESGGGLVQAGGSLRLSCAASGSISELRPMGWYRQAPGKERELVAGISTGGSTNYADSVKGRFTISRDNAKNTVYLQMNSLKPEDTAVYYCAAASYGEGTYDYWGQGTQVTVRS”, for which the “polyreactivity (PSR sort gate)” value is “high polyreactivity”.

For the sequence “QVQHVESGGGLVQAGGSLRLSCAASGNIFDRNAMGWDRQARGKERELVAAISRSGGRTYYADSVKGRFTISRDHAKNTVYLQMNSLKPEDTAVYYCNRRYRKYSSAKYDYWGQGTQVTVSS”, the “polyreactivity (PSR sort gate)” value was “high polyreactivity”.

Take “QVQLVESVRGFDQAGVSLRLSCAASGSIFYHNAKGLYRQATVTERELVGAITSDGSTYYADSVKGRFTISRDNGKNTVYLLMNSLKPEDTAVFYCAAEYYGHRYDYLGQGTQVTVSS”: the “polyreactivity (PSR sort gate)” value is recorded as “low polyreactivity”.

As to “QVQLVESGGGLVQAGGSLRLSCGASGRIFWDNAMGWYRQAPGKERELVAAIDYRGGNTNYADSVKGRFTISRDNAKNTVYLQMNRLKTEDTAVYYCNAEWAVRYPGYDYWGQGTQVTVSS”, the “polyreactivity (PSR sort gate)” value is reported as “low polyreactivity”.

Turning to “QVHLVESGGGLVQAGGRLRLSCAASGFTFAHYDMGWYRQAPGKERELVAAITWSGSSTFYADSLKGRFTISRDNAKNTVYLQMYCMKPEDNAVYYCNADYDVSYWFYQDVIYDYWGQGTQVTVSS”, the “polyreactivity (PSR sort gate)” value was “low polyreactivity”.

Regarding “QVQLVESGGGLVQAGGSLRLSCAASGFIFGYYVMGLYTQAPGKERELVAAITTSGGSTYYADSVKGRFTISRDNAKNTVYLQMNSLKPEDTAVYYCAADGSPSLLDYWGQVTQVTVSS”, the “polyreactivity (PSR sort gate)” value was “high polyreactivity”.

With “QVQLVESGGVLVQAGGSLRLSCAASGSTFYGYAMGWYRQAPGKERELVAAITRSGGSTYYADSVKGRFTISRDNAKNTVYLQMNSLKPEDTAVYYCARQDRDTYYHRYYYWGQGTQVTVSS”, the “polyreactivity (PSR sort gate)” value is listed as “high polyreactivity”.

As to “QVQLVESGGGLVQAGGSLRLSCAASGSTFSQNAMGWYRQAPGKERELVAAITSGGITYYADSVKGRFTISRDNAKNTVYLQMNSLKPEDTAVYYCAAVTPSGAHRSAYHPISDYWGQGTQVTVSS”, the “polyreactivity (PSR sort gate)” value was “low polyreactivity”.

Turning to “QVQLVESGGGLVQAGGSLRLSCAASGSIFRYYAMGWYRQAPGKERELVAAIRWSGGSTYYADSVKGRFTISRDNAKNTVYLQMNSLKPEDTAVYYCAARVGYRGSRQYSSYTLVDYWGQGTQVTVSS”, the “polyreactivity (PSR sort gate)” value was “high polyreactivity”.

With “QVQLVESGGGLVQAGGSLRLSCAASGTTFYHNVMGWYRQAPGKERELVASIDTGDSTNYADSVKGRFTISRDNAKNTVYLQMNSLKPEDTAVYYCNADSYPALNKRGYDYWGQGTQVTVSS”, the “polyreactivity (PSR sort gate)” value is recorded as “low polyreactivity”.

With “QVQLVESGGGLVQAGGSLRLSCAASGFTFVSYAMGWYRQAPGKERELVAAISKRGGSTSYADSVKGRFTISRDNAKNTVYFQMNSLKPEDTAVYYCYNRSYAWSPHVDYWGQGTQVTVSS”, the “polyreactivity (PSR sort gate)” value was “high polyreactivity”.

Turning to “QDQLVESGGGLVQAGGSLRLICDASGSILWHYAMGWYRQAPGTEREWVAAITQRGGSTYYADSEKGRFTISRDTAKYNVYLQMNSLKPEDTAVYYFNTYPTRTYPSYYYWRQGTQVTVSS”, the “polyreactivity (PSR sort gate)” value is recorded as “high polyreactivity”.

As to “QVQLVESGGGLVQAGGSLRLSCAASGNIFPMNAMGWYIEAPGKERELVAAISYSGTSTYYADSVKGRFTISRDKAKNTVYLQMNSLKPEDTAVYYCAARVQRLNLGDYNYWGQGTQVTVSS”, the “polyreactivity (PSR sort gate)” value is listed as “low polyreactivity”.

On to “QVQLVESGGGLVQAGGSLRLTSAASVSTFYNYAMVWYRQAPGKERELVASMTWNGGSTYYADSVKGRFTISRDNAKNTVDLQMTSLKPEDTAGSYCAAEYRDQYPTYPYYRPGYDYWGQGTQVTVSS”, for which the “polyreactivity (PSR sort gate)” value was “low polyreactivity”.

For “QVQLVESLGGLVQAGGSLRLSCAASGRTFPGYAMGWYRQAPGKERELVAAISYTGTRTYYADSVKGRFTISRDNAKNTVYLQMNSLKPEDTAVYFCAAGVQRVSGSYGYWGQGTQVTVSS”, the “polyreactivity (PSR sort gate)” value was “high polyreactivity”.

Consider “QVQLVESGGGLVQAGGSLRLSCAASGSILSYYAMGWYRQAPGKERELVAAISKTGGRTYYADSVKGRFTISRDNAKNTVYLQMNSLKPEDTAVYYCAAVDTIGRYDYWGQGTQVTVSS”, for which the “polyreactivity (PSR sort gate)” value is given as “high polyreactivity”.

Regarding “QFQLVESGGGLVQAGGSLRLSCPASGRIFYYYSMGWYRQAPGKEREFVAAITGRGGSTYYADSVKGRFTISRDNAKYTVYLQMNSLKPEDTADYYCNAGQYFEYYGWYSRYGYWGQGTQVTVSS”, the “polyreactivity (PSR sort gate)” value is “low polyreactivity”.
